Assays:
[1] = cited from earlier work
[2] = system: κ-casein in milk and GMP-protein in whey; test: Liberation of free sialic acid from milk and whey by sialidase (RP-HPLC, DMB labelling); type: biochemical; conditions: milk and whey incubated with sialidase ZJW 0.4 U/ml at room temperature (20-21° C.)
Description: Free sialic acid can be analyzed by means of reverse-phase HPLC, using fluorescence detection with excitation at 310 nm and emission 448 nm after labelling with DMB compound. This method was recently described in literature (M. J. Martin et al Anal. Bional. Chem., 2007, 387, 2943-29-49) and allowed fast and accurate determination of free sialic contents in samples.
Milk was reconstituted by using NILAC low heat skim milk powder (NIZO, The Netherlands); whey was obtained from a local cheddar making facility. The milk and whey samples were treated as follows: milk and whey was incubated separately with sialidase ZJW (0.4 U/ml) at room temperature (20-21° C.) and the reaction was terminated at different moments of time by heating the samples in water bath at 95° C. for 5 minutes. A series of several sialidase ZJW concentrations and incubation times were performed. The samples used for HPLC analysis need to be free from proteins. Therefore, samples were filtered with a Nanosep ultra filtration Eppendorff (10 KD) using centrifugation for 15 minutes at 14000 g. After centrifugation, the free protein supernatant was collected and diluted 100 times with milliQ water in order to measure the sialic acid in a proper range of concentrations (measuring range using RP HPLC method is 5 fmol-5 nmol of sialic acid). […]

[3] = Proteolytic (endo-protease) activity on substrates ZAAXpNA; type: biochemical; conditions: purified enzyme preparation

Molecule | pKa [1] | free sialic acid levels (concentration) ([2]; after 4 hours) | levels of free sialic acid ([2]; after 20 hours of incubation) [mg/L] | proteolytic activity on a series of substrates ZAAXpNA [3]
CC(=O)N[C@H]1[C@H]([C@H](O)[C@H](O)CO)OC(O)(C(=O)O)C[C@@H]1O (stereo partly shown) [Sialic acids, N-acetylneuraminic acid] | around 2.2 |  |  | 
sialidase ZJW: secreted fungal sialidase from Penicillium chrysogenum (SEQ ID NO: 3), overexpressed in Aspergillus niger (protein, listed as Penicillium chrysogenum) MLSSLMYLARECSILRAISLCAILAVATPAASASVTAKHTLATNGKGLFPQYRIVALASLGNGVLLASYDGRPDGGDSPSPNSILQRRSTDGGKTWGNPTYIARGQPASSTLQQYGFSDPSYVVDSGTGKVFNFHVFSKNQGFLNSEIGNDDTDLNIVSAEVSVSTDGGLSWTTDPDHESSLPPVASADVANVGGITGMFASSGEGIQLKYGKHAGRLVQQFLGKVIQSDGSKVSQAYSVYSDDGGAIWKMGKVIGTGMDENKVVELSNGNLMLNSRPSDGSGYRKVATSTDGGETWSTPASETQLPDPGNNGAITRMYPDAAHGSANAKILLFTNANSKTSRSNGTIRYSCDDGKTWSSGAVFQSGSMSYSTVTALGDDRFGIFYEGDSNDLVYIEVSKDFIGVSC |  | approximately 220 mg/L | 250 | does not show proteolytic activity

Source: patent US20140342037A1, “NOVEL PREBIOTICS” (DSM IP ASSETS B.V., priority 2007, published 2014)
